Test results from US11015206B2, “Compositions and methods comprising sequences having hydroxyphenylpyruvate dioxygenase (HPPD) activity” (PIONEER HI-BRED INTERNATIONAL, INC., priority 2014, dated 2021).
Positions count from the first letter of the chain named. Blank lines part the entries; values can stand above or below the molecule they belong to.

Tests used:
Format in all cases: biochemical, Z. mays
[1] = system: 4-hydroxyphenylpyruvate dioxygenase (HPPD); experiment: ON rate ratio: HPPD reaction rate with vs without inhibitor in the 70 to 90 second interval; details: Table 7; tembotrione; combinatorial variants
How it was run: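 Time courses of HPPD reactions, 60 or 120 nM enzyme with 100 μM HPP substrate, run with and without 4 μM inhibitor (e.g. mesotrione, tembotrione). Value is the rate with inhibitor over rate without, taken over 70–90 s; higher ratio reflects slower kON.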

[2] = system: 4-hydroxyphenylpyruvate dioxygenase (HPPD); experiment: OFF rate ratio: release of inhibitor from pre-formed enzyme-inhibitor complex; details: Table 7; tembotrione; combinatorial variants
How it was run: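 HPPD (7.2 μM) pre-incubated 1 h at RT with inhibitor (8 μM), then diluted into 25 mM Hepes pH 7, 2 mM ascorbate, 10 μM FeSO4, 100 μM HPP, 50 nM HGD; A320 followed 12 min. Ratio = steady-state rate with inhibitor over initial rate of inhibitor-free enzyme.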

[3] = system: 4-hydroxyphenylpyruvate dioxygenase (HPPD); experiment: Insensitivity parameter (ON × OFF) and trait fitness (ON × OFF × kcat/KM or × kcat); parameters: key to ON × OFF / Insensitivity, mesotrione, ON × OFF / Insensitivity, tembotrione, ON × OFF / Insensitivity, topramezone, ON × OFF / Insensitivity, sulcotrione, ON × OFF / Insensitivity, isoxaflutole (DKN), ON × OFF: insensitivity = ON rate ratio × OFF rate ratio (surrogate for KD)
How it was run: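 Calculated, not measured directly: ON rate ratio × OFF rate ratio gives an insensitivity parameter serving as a KD surrogate.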

[4] = system: 4-hydroxyphenylpyruvate dioxygenase (HPPD); experiment: Estimate of kcat from initial rate at saturating hydroxyphenylpyruvate without inhibitor (ON rate ratio assay)
How it was run: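 Reactions used 60 or 120 nM HPPD and saturating 100 μM hydroxyphenylpyruvate without inhibitor. kcat was estimated from the initial rate at the known enzyme concentration.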

[5] = Table 7, tembotrione, combinatorial variants
[6] = Table 7, combinatorial variants

- ON rate ratio [1]: 0.727
- OFF rate ratio [2]: 0.322
- ON × OFF ([3]; Megatable 3, shuffled variants): 0.234
- ON × OFF [3, 5]: 0.234
B1: P056028-C-04 (protein)
chain: MGPTPTATAAGAAVAAASAAEQAAFRLVGHRNFVRFNPRSDRFQTLAFHHVELWCADAASAAGRFSFALGVPLAARSDLSTGNSAHASLLLRSGSLSLLFTAPYAHDADAATAALPSFSAAAARRFAADHGLAVRAVALRVADAEDAFRASVAAGARPAFGPVDLGRGFRLAEVELYGDVVLRYVSYPDGGAGEPFLPGFEGVASSGAADYGLSRFDHIVGNVPELAPAAAYMAGFTGFHEFAEFTTEDVGTTESGLNSMALANNSENVLLPLNEPVLGTKRRSQIQTFLDHHGGPGVQHIALASDDVLRTLREMRARSAMGGFEFLPPPLSDYYDGVRRCAGDVLTEAQINECQELGVMVDRDDEGVLLQIFTKPVGDRPTFFLEIIQRIGCMEKDEKGQEYQKGGCGGFGKGNFSQLFKSIEDYEKSLEAKRAAAAATAQGS
modifications: Zea mays variant form created by artificial means.
- ON × OFF × kcat ([3]; Megatable 3, shuffled variants): 5.32
- ON × OFF × kcat [3, 5]: 5.32
- kcat ([4]; Megatable 3, shuffled variants): 0.378 s⁻¹
- kcat [4, 6]: 0.378 s⁻¹

- ON rate ratio [1]: 0.721
- OFF rate ratio [2]: 0.304
- ON × OFF ([3]; Megatable 3, shuffled variants): 0.219
- ON × OFF [3, 5]: 0.219
B6: P056028-E-11 (protein)
chain: B1 chain with D107G, L278H, S417G, R434Q
modifications: Zea mays variant form created by artificial means.
- ON × OFF × kcat ([3]; Megatable 3, shuffled variants): 3.70
- ON × OFF × kcat [3, 5]: 3.70
- kcat ([4]; Megatable 3, shuffled variants): 0.282 s⁻¹
- kcat [4, 6]: 0.282 s⁻¹

- ON rate ratio [1]: 0.730
- OFF rate ratio [2]: 0.299
- ON × OFF ([3]; Megatable 3, shuffled variants): 0.218
- ON × OFF [3, 5]: 0.218
B7: P056028-D-02 (protein)
chain: B1 chain with D107G, S206P, L278H, R340K, S417G, R434Q
modifications: Zea mays variant form created by artificial means.
- ON × OFF × kcat ([3]; Megatable 3, shuffled variants): 5.31
- ON × OFF × kcat [3, 5]: 5.31
- kcat ([4]; Megatable 3, shuffled variants): 0.405 s⁻¹
- kcat [4, 6]: 0.405 s⁻¹

- ON rate ratio [1]: 0.704
- OFF rate ratio [2]: 0.325
- ON × OFF ([3]; Megatable 3, shuffled variants): 0.229
- ON × OFF [3, 5]: 0.229
B11: P056028-E-05 (protein)
chain: B1 chain with D107G, L278H, S417Q, R434Q
modifications: Zea mays variant form created by artificial means.
- ON × OFF × kcat ([3]; Megatable 3, shuffled variants): 3.48
- ON × OFF × kcat [3, 5]: 3.48
- kcat ([4]; Megatable 3, shuffled variants): 0.253 s⁻¹
- kcat [4, 6]: 0.253 s⁻¹

- ON rate ratio [1]: 0.346
- OFF rate ratio [2]: 0.186
- ON × OFF ([3]; Megatable 3, shuffled variants): 0.064
- ON × OFF [3, 5]: 0.064
B13: P056028-E-06 (protein)
chain: B1 chain with D107G, G191A, S206P, E244K, L278H, R340K, M394K, S417G, R434Q
modifications: Zea mays variant form created by artificial means.
- ON × OFF × kcat ([3]; Megatable 3, shuffled variants): 1.76
- ON × OFF × kcat [3, 5]: 1.76
- kcat ([4]; Megatable 3, shuffled variants): 0.47 s⁻¹
- kcat [4, 6]: 0.47 s⁻¹

- ON rate ratio [1]: 0.775
- OFF rate ratio [2]: 0.370
- ON × OFF ([3]; Megatable 3, shuffled variants): 0.286
- ON × OFF [3, 5]: 0.286
B15: P056028-D-07 (protein)
chain: B1 chain with D107G, G191A, S206Q, L278H, R340K, L385I, S417G, R434Q
modifications: Zea mays variant form created by artificial means.
- ON × OFF × kcat ([3]; Megatable 3, shuffled variants): 2.60
- ON × OFF × kcat [3, 5]: 2.60
- kcat ([4]; Megatable 3, shuffled variants): 0.152 s⁻¹
- kcat [4, 6]: 0.152 s⁻¹

- ON rate ratio [1]: 0.696
- OFF rate ratio [2]: 0.197
- ON × OFF ([3]; Megatable 3, shuffled variants): 0.137
- ON × OFF [3, 5]: 0.137
B16: P056028-D-04 (protein)
chain: B1 chain with D107G, L182M, G191A, S206P, Y211L, S214N, L278H, R434Q
modifications: Zea mays variant form created by artificial means.
- ON × OFF × kcat ([3]; Megatable 3, shuffled variants): 1.71
- ON × OFF × kcat [3, 5]: 1.71
- kcat ([4]; Megatable 3, shuffled variants): 0.207 s⁻¹
- kcat [4, 6]: 0.207 s⁻¹

- ON rate ratio [1]: 0.706
- OFF rate ratio [2]: 0.314
- ON × OFF ([3]; Megatable 3, shuffled variants): 0.222
- ON × OFF [3, 5]: 0.222
B17: P056028-C-09 (protein)
chain: B1 chain with D107G, G191A, S206P, S214N, L278H, S417G, R434Q
modifications: Zea mays variant form created by artificial means.
- ON × OFF × kcat ([3]; Megatable 3, shuffled variants): 3.76
- ON × OFF × kcat [3, 5]: 3.76
- kcat ([4]; Megatable 3, shuffled variants): 0.283 s⁻¹
- kcat [4, 6]: 0.283 s⁻¹

- ON rate ratio [1]: 0.735
- OFF rate ratio [2]: 0.412
- ON × OFF ([3]; Megatable 3, shuffled variants): 0.303
- ON × OFF [3, 5]: 0.303
B18: P056028-E-03 (protein)
chain: B1 chain with T45A, D107G, G191A, S206P, L278H, R434Q
modifications: Zea mays variant form created by artificial means.
- ON × OFF × kcat ([3]; Megatable 3, shuffled variants): 5.10
- ON × OFF × kcat [3, 5]: 5.10
- kcat ([4]; Megatable 3, shuffled variants): 0.282 s⁻¹
- kcat [4, 6]: 0.282 s⁻¹

Further lines, the molecule ahead of its results:

B2: P056028-D-06 (protein)
chain: B1 chain with D107G, L182M, G191A, S206Q, Y211L, S214N, L278H, I387L, R434Q
modifications: Zea mays variant form created by artificial means.
- ON rate ratio [1]: 0.731
- OFF rate ratio [2]: 0.424
- ON × OFF ([3]; Megatable 3, shuffled variants): 0.310
- ON × OFF × kcat ([3]; Megatable 3, shuffled variants): 3.07
- ON × OFF [3, 5]: 0.310
- ON × OFF × kcat [3, 5]: 3.07
- kcat ([4]; Megatable 3, shuffled variants): 0.165 s⁻¹
- kcat [4, 6]: 0.165 s⁻¹

B3: P056028-D-11 (protein)
chain: B1 chain with D107G, A142T, S206P, L278H, R340K, S417G, R434Q
modifications: Zea mays variant form created by artificial means.
- ON rate ratio [1]: 0.719
- OFF rate ratio [2]: 0.261
- ON × OFF ([3]; Megatable 3, shuffled variants): 0.188
- ON × OFF × kcat ([3]; Megatable 3, shuffled variants): 3.21
- ON × OFF [3, 5]: 0.188
- ON × OFF × kcat [3, 5]: 3.21
- kcat ([4]; Megatable 3, shuffled variants): 0.285 s⁻¹
- kcat [4, 6]: 0.285 s⁻¹

B4: P056028-C-08 (protein)
chain: B1 chain with D107G, L182M, G191A, S206P, L278H, R340K, S417G, E431D, R434Q
modifications: Zea mays variant form created by artificial means.
- ON rate ratio [1]: 0.712
- OFF rate ratio [2]: 0.381
- ON × OFF ([3]; Megatable 3, shuffled variants): 0.271
- ON × OFF × kcat ([3]; Megatable 3, shuffled variants): 3.65
- ON × OFF [3, 5]: 0.271
- ON × OFF × kcat [3, 5]: 3.65
- kcat ([4]; Megatable 3, shuffled variants): 0.225 s⁻¹
- kcat [4, 6]: 0.225 s⁻¹

B5: P056028-D-05 (protein)
chain: B1 chain with D107G, G191A, L278H, R340K, E356R, R434Q
modifications: Zea mays variant form created by artificial means.
- ON rate ratio [1]: 0.730
- OFF rate ratio [2]: 0.508
- ON × OFF ([3]; Megatable 3, shuffled variants): 0.371
- ON × OFF × kcat ([3]; Megatable 3, shuffled variants): 4.66
- ON × OFF [3, 5]: 0.371
- ON × OFF × kcat [3, 5]: 4.66
- kcat ([4]; Megatable 3, shuffled variants): 0.21 s⁻¹
- kcat [4, 6]: 0.21 s⁻¹

B8: P056028-E-10 (protein)
chain: B1 chain with D107G, L182M, G191A, S206Q, L278H, S417G, R434Q
modifications: Zea mays variant form created by artificial means.
- ON rate ratio [1]: 0.702
- OFF rate ratio [2]: 0.339
- ON × OFF ([3]; Megatable 3, shuffled variants): 0.238
- ON × OFF × kcat ([3]; Megatable 3, shuffled variants): 2.73
- ON × OFF [3, 5]: 0.238
- ON × OFF × kcat [3, 5]: 2.73
- kcat ([4]; Megatable 3, shuffled variants): 0.192 s⁻¹
- kcat [4, 6]: 0.192 s⁻¹

B9: P056028-C-06 (protein)
chain: B1 chain with D107G, S214N, L278H, R340K, E356R, L385V, S417G, R434Q
modifications: Zea mays variant form created by artificial means.
- ON rate ratio [1]: 0.742
- OFF rate ratio [2]: 0.351
- ON × OFF ([3]; Megatable 3, shuffled variants): 0.261
- ON × OFF × kcat ([3]; Megatable 3, shuffled variants): 2.77
- ON × OFF [3, 5]: 0.261
- ON × OFF × kcat [3, 5]: 2.77
- kcat ([4]; Megatable 3, shuffled variants): 0.177 s⁻¹
- kcat [4, 6]: 0.177 s⁻¹

B10: P056028-D-10 (protein)
chain: B1 chain with D107G, G191A, S206Q, N265D, L278H, S417G, R434Q
modifications: Zea mays variant form created by artificial means.
- ON rate ratio [1]: 0.670
- OFF rate ratio [2]: 0.253
- ON × OFF ([3]; Megatable 3, shuffled variants): 0.170
- ON × OFF × kcat ([3]; Megatable 3, shuffled variants): 3.07
- ON × OFF [3, 5]: 0.170
- ON × OFF × kcat [3, 5]: 3.07
- kcat ([4]; Megatable 3, shuffled variants): 0.302 s⁻¹
- kcat [4, 6]: 0.302 s⁻¹

B12: P056028-D-09 (protein)
chain: B1 chain with D107G, S206P, L278H, E356K, S417G, R434Q
modifications: Zea mays variant form created by artificial means.
- ON rate ratio [1]: 0.652
- OFF rate ratio [2]: 0.371
- ON × OFF ([3]; Megatable 3, shuffled variants): 0.242
- ON × OFF × kcat ([3]; Megatable 3, shuffled variants): 3.16
- ON × OFF [3, 5]: 0.242
- ON × OFF × kcat [3, 5]: 3.16
- kcat ([4]; Megatable 3, shuffled variants): 0.217 s⁻¹
- kcat [4, 6]: 0.217 s⁻¹

B14: P056028-D-01 (protein)
chain: B1 chain with D107G, A122T, G191A, S206Q, L278H, E356K, S417G, R434Q
modifications: Zea mays variant form created by artificial means.
- ON rate ratio [1]: 0.728
- OFF rate ratio [2]: 0.348
- ON × OFF ([3]; Megatable 3, shuffled variants): 0.254
- ON × OFF × kcat ([3]; Megatable 3, shuffled variants): 5.39
- ON × OFF [3, 5]: 0.254
- ON × OFF × kcat [3, 5]: 5.39
- kcat ([4]; Megatable 3, shuffled variants): 0.355 s⁻¹
- kcat [4, 6]: 0.355 s⁻¹
